{
  "source": "patent US20250041377A1",
  "about": "“PHARMACEUTICAL USE” (ENLITISA (SHANGHAI) PHARMACEUTICAL CO., LTD., priority 2018, published 2025)",
  "molecules": {"B1": {"name": "rhEGF: Recombinant Human Epidermal Growth Factor, lyophilized powder dissolved in normal saline (protein, UniProt P01133 23-1207, looked up)", "Pro-epidermal growth factor": "PQHWSCPEGTLAGNGNSTCVGPAPFLIFSHGNSIFRIDTEGTNYEQLVVDAGVSVIMDFHYNEKRIYWVDLERQLLQRVFLNGSRQERVCNIEKNVSGMAINWINEEVIWSNQQEGIITVTDMKGNNSHILLSALKYPANVAVDPVERFIFWSSEVAGSLYRADLDGVGVKALLETSEKITAVSLDVLDKRLFWIQYNREGSNSLICSCDYDGGSVHISKHPTQHNLFAMSLFGDRIFYSTWKMKTIWIANKHTGKDMVRINLHSSFVPLGELKVVHPLAQPKAEDDTWEPEQKLCKLRKGNCSSTVCGQDLQSHLCMCAEGYALSRDRKYCEDVNECAFWNHGCTLGCKNTPGSYYCTCPVGFVLLPDGKRCHQLVSCPRNVSECSHDCVLTSEGPLCFCPEGSVLERDGKTCSGCSSPDNGGCSQLCVPLSPVSWECDCFPGYDLQLDEKSCAASGPQPFLLFANSQDIRHMHFDGTDYGTLLSQQMGMVYALDHDPVENKIYFAHTALKWIERANMDGSQRERLIEEGVDVPEGLAVDWIGRRFYWTDRGKSLIGRSDLNGKRSKIITKENISQPRGIAVHPMAKRLFWTDTGINPRIESSSLQGLGRLVIASSDLIWPSGITIDFLTDKLYWCDAKQSVIEMANLDGSKRRRLTQNDVGHPFAVAVFEDYVWFSDWAMPSVMRVNKRTGKDRVRLQGSMLKPSSLVVVHPLAKPGADPCLYQNGGCEHICKKRLGTAWCSCREGFMKASDGKTCLALDGHQLLAGGEVDLKNQVTPLDILSKTRVSEDNITESQHMLVAEIMVSDQDDCAPVGCSMYARCISEGEDATCQCLKGFAGDGKLCSDIDECEMGVPVCPPASSKCINTEGGYVCRCSEGYQGDGIHCLDIDECQLGEHSCGENASCTNTEGGYTCMCAGRLSEPGLICPDSTPPPHLREDDHHYSVRNSDSECPLSHDGYCLHDGVCMYIEALDKYACNCVVGYIGERCQYRDLKWWELRHAGHGQQQKVIVVAVCVVVLVMLLLLSLWGAHYYRTQKLLSKNPKNPYEESSRDVRSRRPADTEDGMSSCPQPWFVVIKEHQDLKNGGQPVAGEDGQAADGSMQPTSWRQEPQLCGMGTEQGCWIPVSSDKGSCPQVMERSFHMPSYGTQTLEGGVEKPHSLLSANPLWQQRALDPPHQMELTQ", "modifications": "Pro-epidermal growth factor", "notes": "Recombinant Human Epidermal Growth Factor, lyophilized powder dissolved in normal saline"}},
  "key": {"[1]": {"test_system": "full thickness skin wound on the back", "assay": "Acute wound model, remaining wound area", "type": "in vivo, C57BL/6 mice", "settings": "± SD", "protocol": "6-8 weeks old male C57BL/6 mice were supplied by Changzhou Cvens Experimental Animal Co. Ltd (Changzhou, Jiangsu Province, China). Prior to any experiments being conducted, mice were housed under standardized conditions (at a constant temperature of 22±2° C., with alternating 12 hour periods of light and darkness), and were fed on a standard mouse diet with water, for about a week.\nGeneral anesthesia was induced using intraperitoneal 3% chloral hydrate (1 mL/10 g of body weight). The hair on the back was shaved by a baby hair shaver and depilated with cream. The skin area was wiped and sterilized with 75% alcohol twice.\nAn EMS skin biopsy punch (Electron Microscopy Sciences, P.O. Box 550, 1560 Industry Road, Hatfield, PA, USA) with a 18 mm diameter was used to make a round wound on the back. The full thickness of skin was removed and the depth of the wound reached the fascia. Wounds were left open without a suture.\n(§1) The model group was given same amount of normal saline. There were 8 mice in each group.\nRecombinant Human Epidermal Growth Factor (rhEGF, Shanghai Haohai Biological Technology Co. Ltd, 23/F, Shanghai, China) was purchased and prepared according to the manufacturer's instructions. The lyophilized rhEGF powder (100000 IU/vial) was dissolved in 20 mL of normal saline to make a solution with a concentration of 5000 IU/mL. The working dose of rhEGF for this experiment was 1285 IU/wound.\nFor this experiment, Compound A was also obtained from GL Biochem (Shanghai) Ltd. The peptide powders were stored at −20° C. and dissolved in saline at concentrations of 61.8 μg/mL (Compound A), and 61 μg/mL (Compound B). 50 μL of the solutions were applied onto the wound surfaces.\nWounds were dressed with gauze and transparent dresser after drug administration. Photographs were taken for each wound every other day from Day 0. Photos were scanned into a computer, and wound areas calculated using ImageJ image analysis software (National Institutes of Health, […]).\nThe unhealed wound area was expressed as a percentage of the original wound area: […]\nwhere A0 and At refer to the initial area at Day 0 and the wound area at the date of measurement (time t), respectively."}, "[2]": {"test_system": "Hyp, VEGF and TGF-β1 in wound tissue", "assay": "Acute wound model, ELISA of wound tissue", "type": "in vivo, C57BL/6 mice", "settings": "for wound Hyp content (Mean): indicator of collagen regeneration; for TGF-β1 content (Mean): wound tissue", "text": "as §1\nSamples were taken at Day 4 and Day 7 post-wound infliction. The mice were sacrificed and the wound tissue taken by the same biopsy punch used to create the wound. Then 5 mm of tissue was cut off from the center of the sample and was preserved in 10% neutral buffered formalin (Nanchang Rain Dew Experimental Equipment Co., Ltd., Nanchang, Hubei Province, China), and analyzed by histological embedding (HE) in paraffin wax, sectioning and staining.\nThe rest of the samples were stored at −80° C. for further analysis. Tissue was cut into small pieces and liquid nitrogen was added to increase brittleness. 9 mL of normal saline was added to 1 g of tissue, which was then ground using a Tissuelyser (Shanghai Jingxin Industrial Development Co., Ltd., Shanghai, China) at 55 Hz for 60 seconds, followed by centrifuging at 8000 rpm for 10 minutes at 4° C.\nThe supernatant was collected, and the extracted protein was used for ELISA analysis using standard ELISA test kits and an ELISA reader (SH-1000 Hitachi, Japan). Vascular endothelial growth factor (VEGF), transforming growth factor beta 1 (TGF-β1) and hydroxyproline (Hyp) were assayed. The ELISA kits were purchased from Beijing 4A Biotech Co., Ltd. (Beijing, China)."}},
  "data": [
    {"molecule": "B1", "values": [
      {"measurement": "ratio of remaining wound area of initial wound", "setting": "[1]; Day 0, topical 50 μL/wound once daily, rhEGF 1285 IU/mouse, Compound A 3.09 μg/mouse, Compound B 3.05 μg/mouse", "result": "82.0 ± 2.2", "unit": "%"},
      {"measurement": "ratio of remaining wound area of initial wound", "setting": "[1]; Day 1, topical once daily", "result": "100 ± 9.9", "unit": "%"},
      {"measurement": "ratio of remaining wound area of initial wound", "setting": "[1]; Day 2, topical once daily", "result": "94.1 ± 4.3", "unit": "%"},
      {"measurement": "ratio of remaining wound area of initial wound", "setting": "[1]; Day 3, topical once daily", "result": "78.6 ± 7.3", "unit": "%"},
      {"measurement": "ratio of remaining wound area of initial wound", "setting": "[1]; Day 4, topical once daily", "result": "61.5 ± 3.3", "unit": "%"},
      {"measurement": "ratio of remaining wound area of initial wound", "setting": "[1]; Day 5, topical once daily", "result": "53.0 ± 1.0", "unit": "%"},
      {"measurement": "ratio of remaining wound area of initial wound", "setting": "[1]; Day 6, topical once daily", "result": "47.2 ± 5.8", "unit": "%"},
      {"measurement": "wound Hyp content (Mean)", "setting": "[2]; Day 4", "result": 1.808, "unit": "µg/mg"},
      {"measurement": "TGF-β1 content (Mean)", "setting": "[2]; Day 4", "result": 18190.6, "unit": "pg/g"},
      {"measurement": "wound Hyp content (Mean)", "setting": "[2]; Day 7", "result": 2.679, "unit": "µg/mg"},
      {"measurement": "TGF-β1 content (Mean)", "setting": "[2]; Day 7", "result": 15443.1, "unit": "pg/g"}
    ]}
  ]
}
